Reference: the Human Domainome abundance scans (Beltran et al. 2025)
± gives the uncertainty stated by the source.

B1: Transcription factor SOX-4, residues 60 to 127; numbered along this chain, Q06945 (parent)
chain: KRPMNAFMVWSQIERRKIMEQSPDMHNAEISKRLGKRWKLLKDSDKIPFIREAERLRLKHMADYPDYK

Variants of: B1
Test: abundance fitness (aPCA) (normalised: wild type 0, dead -1); higher = more abundant; growth selection in yeast, the domain comes from the species named
Conditions: Homo sapiens
A53V gave an abundance fitness of -0.787 ± 0.12.
A53W showed an abundance fitness of -1.19 ± 0.19.
Work on A53Y yielded an abundance fitness of -0.347 ± 0.12.
With E54A the abundance fitness was -0.29 ± 0.062.
E54C showed an abundance fitness of -0.425 ± 0.049.
E54D gave an abundance fitness of -0.264 ± 0.046.
In the case of E54F, the abundance fitness is reported as -0.574 ± 0.056.
E54G gave an abundance fitness of -0.514 ± 0.044.
E54H gave an abundance fitness of -0.435 ± 0.045.
In the case of E54I, the abundance fitness is reported as -0.701 ± 0.067.
In the case of E54K, the abundance fitness is reported as -0.369 ± 0.06.
Variant E54L has an abundance fitness of -0.501 ± 0.045.
With E54N the abundance fitness was -0.158 ± 0.041.
For E54P, the abundance fitness was -0.802 ± 0.11.
E54Q gave an abundance fitness of -0.071 ± 0.062.
With E54R the abundance fitness was -0.469 ± 0.051.
With E54V the abundance fitness was -0.696 ± 0.055.
With E54W the abundance fitness was -0.643 ± 0.09.
Variant E54Y has an abundance fitness of -0.652 ± 0.058.
In the case of R55A, the abundance fitness is reported as -0.103 ± 0.053.
Work on R55C yielded an abundance fitness of -0.292 ± 0.056.
For R55D, the abundance fitness was -0.136 ± 0.07.
Work on R55E yielded an abundance fitness of -0.333 ± 0.076.
Variant R55F has an abundance fitness of -0.38 ± 0.059.
R55G gave an abundance fitness of -0.337 ± 0.035.
With R55H the abundance fitness was -0.284 ± 0.073.
R55I gave an abundance fitness of -0.22 ± 0.06.
Work on R55K yielded an abundance fitness of -0.08 ± 0.072.
In the case of R55L, the abundance fitness is reported as -0.326 ± 0.046.
With R55M the abundance fitness was -0.2 ± 0.091.
R55N gave an abundance fitness of -0.22 ± 0.07.
Variant R55P has an abundance fitness of -0.5 ± 0.09.
Variant R55Q has an abundance fitness of -0.188 ± 0.08.
In the case of R55S, the abundance fitness is reported as -0.309 ± 0.045.
R55T showed an abundance fitness of -0.181 ± 0.067.
In the case of R55V, the abundance fitness is reported as -0.248 ± 0.039.
For R55W, the abundance fitness was -0.44 ± 0.047.
Variant R55Y has an abundance fitness of -0.474 ± 0.1.
Work on L56A yielded an abundance fitness of -0.355 ± 0.073.
Work on L56C yielded an abundance fitness of -0.408 ± 0.1.
With L56D the abundance fitness was -0.385 ± 0.13.
Variant L56E has an abundance fitness of -0.201 ± 0.1.
In the case of L56F, the abundance fitness is reported as -0.543 ± 0.11.
For L56G, the abundance fitness was -0.341 ± 0.071.
For L56I, the abundance fitness was -0.149 ± 0.093.
Work on L56K yielded an abundance fitness of -0.174 ± 0.15.
Variant L56M has an abundance fitness of 0.115 ± 0.14.
L56P showed an abundance fitness of -0.655 ± 0.1.
In the case of L56Q, the abundance fitness is reported as -0.108 ± 0.08.
L56R showed an abundance fitness of -0.254 ± 0.054.
Work on L56S yielded an abundance fitness of -0.282 ± 0.049.
L56T showed an abundance fitness of -0.272 ± 0.09.
For L56V, the abundance fitness was -0.286 ± 0.063.
With L56W the abundance fitness was -0.542 ± 0.088.
With L56Y the abundance fitness was -0.349 ± 0.22.
For R57A, the abundance fitness was 0.06 ± 0.062.
R57C gave an abundance fitness of -0.048 ± 0.13.
For R57D, the abundance fitness was -0.372 ± 0.11.
Variant R57E has an abundance fitness of -0.111 ± 0.066.
Variant R57F has an abundance fitness of 0.056 ± 0.22.
R57G showed an abundance fitness of -0.247 ± 0.064.
R57H showed an abundance fitness of -0.815 ± 0.41.
R57K showed an abundance fitness of -0.375 ± 0.16.
With R57L the abundance fitness was -0.328 ± 0.063.
R57M gave an abundance fitness of -0.135 ± 0.086.
R57P gave an abundance fitness of -0.236 ± 0.093.
Variant R57Q has an abundance fitness of -0.206 ± 0.1.
In the case of R57S, the abundance fitness is reported as -0.309 ± 0.08.
R57T showed an abundance fitness of -0.19 ± 0.17.
For R57V, the abundance fitness was -0.413 ± 0.072.
Variant R57W has an abundance fitness of -0.32 ± 0.11.
L58A gave an abundance fitness of 0.013 ± 0.05.
Work on L58C yielded an abundance fitness of -0.247 ± 0.058.
In the case of L58D, the abundance fitness is reported as -0.039 ± 0.047.
Variant L58E has an abundance fitness of 0.091 ± 0.058.
In the case of L58F, the abundance fitness is reported as -0.084 ± 0.039.
L58G gave an abundance fitness of 0.015 ± 0.034.
With L58H the abundance fitness was -0.018 ± 0.062.
With L58I the abundance fitness was -0.132 ± 0.047.
L58K showed an abundance fitness of -0.07 ± 0.046.
With L58M the abundance fitness was -0.043 ± 0.065.
Work on L58N yielded an abundance fitness of -0.028 ± 0.046.
L58Q showed an abundance fitness of 0.046 ± 0.12.
In the case of L58R, the abundance fitness is reported as 0.007 ± 0.04.
In the case of L58S, the abundance fitness is reported as -0.011 ± 0.034.
For L58T, the abundance fitness was -0.087 ± 0.058.
Work on L58V yielded an abundance fitness of -0.046 ± 0.039.
With L58W the abundance fitness was -0.247 ± 0.055.
With L58Y the abundance fitness was -0.286 ± 0.043.
In the case of K59A, the abundance fitness is reported as -0.04 ± 0.064.
With K59D the abundance fitness was -0.13 ± 0.054.
With K59E the abundance fitness was -0.017 ± 0.046.
In the case of K59F, the abundance fitness is reported as -0.321 ± 0.054.
Variant K59G has an abundance fitness of -0.045 ± 0.038.
In the case of K59H, the abundance fitness is reported as -0.108 ± 0.073.
K59L showed an abundance fitness of 0.02 ± 0.044.
Variant K59M has an abundance fitness of -0.048 ± 0.055.
In the case of K59N, the abundance fitness is reported as -0.118 ± 0.061.
Variant K59P has an abundance fitness of -0.178 ± 0.089.
For K59R, the abundance fitness was -0.126 ± 0.035.
In the case of K59S, the abundance fitness is reported as -0.024 ± 0.039.
K59T gave an abundance fitness of -0.162 ± 0.058.
K59V showed an abundance fitness of -0.086 ± 0.038.
With K59W the abundance fitness was -0.369 ± 0.056.
K59Y gave an abundance fitness of -0.277 ± 0.053.
H60A showed an abundance fitness of -0.055 ± 0.045.
For H60C, the abundance fitness was -0.205 ± 0.13.
H60D showed an abundance fitness of 0.005 ± 0.075.
H60E showed an abundance fitness of 0.053 ± 0.072.
Variant H60F has an abundance fitness of -0.193 ± 0.21.
For H60G, the abundance fitness was 0.04 ± 0.05.
H60I showed an abundance fitness of -0.408 ± 0.2.
For H60K, the abundance fitness was 0.023 ± 0.1.
For H60L, the abundance fitness was -0.186 ± 0.052.
In the case of H60M, the abundance fitness is reported as -0.092 ± 0.073.
Work on H60N yielded an abundance fitness of -0.076 ± 0.24.
Variant H60P has an abundance fitness of -0.045 ± 0.079.
For H60Q, the abundance fitness was -0.066 ± 0.072.
With H60R the abundance fitness was -0.19 ± 0.047.
Work on H60S yielded an abundance fitness of 0.041 ± 0.06.
Work on H60T yielded an abundance fitness of -0.05 ± 0.069.
Variant H60V has an abundance fitness of -0.173 ± 0.053.
H60W gave an abundance fitness of -0.161 ± 0.074.
In the case of M61A, the abundance fitness is reported as -0.061 ± 0.067.
With M61C the abundance fitness was -0.071 ± 0.083.
Variant M61G has an abundance fitness of 0.022 ± 0.069.
M61H showed an abundance fitness of 0.098 ± 0.061.
With M61I the abundance fitness was -0.238 ± 0.072.
In the case of M61K, the abundance fitness is reported as 0.003 ± 0.089.
In the case of M61N, the abundance fitness is reported as -0.104 ± 0.13.
Variant M61P has an abundance fitness of -0.202 ± 0.087.
With M61Q the abundance fitness was 0.092 ± 0.079.
Work on M61R yielded an abundance fitness of -0.134 ± 0.057.
Work on M61S yielded an abundance fitness of 0.001 ± 0.071.
M61T gave an abundance fitness of -0.025 ± 0.093.
